Target: the molecule itself
Assay: dynamic light scattering; protein in solution, 10 µM, 25 mM Tris pH 7.4, 3% PEG 8000, NaCl as indicated (lower ionic strength); diameters modelled as Rayleigh spheres; monomers against higher ordered structures

B1: GFP-syt1 (80–142) (domain or fragment, UniProt P21707 80-142, looked up)
chain: KKCLFKKKNKKKGKEKGGKNAINMKDVKDLGKTMKDQALKDDDAETGLTDGEEKEEPKEEEKL
notes: synaptotagmin 1 (syt1), juxtamembrane linker, residues 80–142; also called GFP-tagged juxtamembrane linker (80–142); isolated juxtamembrane linker (residues 80–142); source: E. coli BL21(DE3), purified (Ni-NTA, eluted with 200 mM imidazole, dialysed); not shown: msGFP (no linker), N-terminal, kept
binding result: binds
